From patent US20210054078A1 come the findings set out here.

The target in experiment [1] is human PD-L1 (soluble protein of the kinetic measurements) (human) (UniProt Q9NZQ7). In words: dissociation rate constant of scFv phage clone, method not named.
Experiment [2] addresses Human PD-L1-HisTag (#10084-H08H, Sino Biological Inc.) (human) (UniProt Q9NZQ7). In words: ELISA, scFv phage supernatant on coated His-tag PD-L1, anti-M13-HRP. A general note: In an ELISA, binding on a coated surface is turned into a signal by an enzyme label.
The target of experiment [3] is Mouse PD-L1-HisTag (#50010-M08H, Sino Biological Inc.) (mouse) (UniProt Q9EP73). The description is as above.
The target of experiment [4] is mouse PD-L1 (soluble protein of the kinetic measurements) (mouse) (UniProt Q9EP73). In words: dissociation rate constant of scFv phage clone, method not named.
The target in experiment [5] is human PD-L1 on hPD-L1/CHO-K1 overexpressing cells (human) (UniProt Q9NZQ7). In words: flow cytometry, scFv phage supernatant on hPD-L1/CHO-K1 cells. (A flow cytometer gives signals particle by particle.)

Changes are numbered by the printed parent chain.

Chain of human PD-L1 (soluble protein of the kinetic measurements) (human) (Q9NZQ7 19-238 limits assumed): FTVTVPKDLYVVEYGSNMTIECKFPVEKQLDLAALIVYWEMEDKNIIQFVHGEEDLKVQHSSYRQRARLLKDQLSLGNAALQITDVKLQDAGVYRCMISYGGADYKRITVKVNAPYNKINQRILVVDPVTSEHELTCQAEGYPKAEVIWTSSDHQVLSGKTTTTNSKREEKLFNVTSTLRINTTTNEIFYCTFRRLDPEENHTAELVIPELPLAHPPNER
Chain of human PD-L1 on hPD-L1/CHO-K1 overexpressing cells (human) (Q9NZQ7 19-290): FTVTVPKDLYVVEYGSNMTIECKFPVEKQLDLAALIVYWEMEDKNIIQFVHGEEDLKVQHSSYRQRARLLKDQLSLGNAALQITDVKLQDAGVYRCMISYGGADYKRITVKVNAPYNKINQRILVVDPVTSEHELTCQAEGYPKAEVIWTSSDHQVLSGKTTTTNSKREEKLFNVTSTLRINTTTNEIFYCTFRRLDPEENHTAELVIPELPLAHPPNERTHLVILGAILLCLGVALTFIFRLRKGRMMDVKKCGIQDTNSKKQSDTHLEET
Chain of mouse PD-L1 (soluble protein of the kinetic measurements) (mouse) (Q9EP73 19-238 limits assumed): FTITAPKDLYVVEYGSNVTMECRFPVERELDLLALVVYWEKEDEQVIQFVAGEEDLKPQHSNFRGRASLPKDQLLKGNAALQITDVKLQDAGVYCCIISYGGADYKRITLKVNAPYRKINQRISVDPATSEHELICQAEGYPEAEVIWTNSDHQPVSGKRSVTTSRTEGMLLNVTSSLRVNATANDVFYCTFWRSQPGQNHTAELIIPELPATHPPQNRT
Chain of Human PD-L1-HisTag (#10084-H08H, Sino Biological Inc.) (human) (Q9NZQ7 19-238 limits assumed): as the sequence (Q9NZQ7 19-238 limits assumed) above
Chain of Mouse PD-L1-HisTag (#50010-M08H, Sino Biological Inc.) (mouse) (Q9EP73 19-238 limits assumed, stated change not applied): as the sequence (Q9EP73 19-238 limits assumed) above

B1: 1G1.D8 scFv phage clone (scFv, part only; not given: scFv linker, part only)
scFv, part: QVQLVESGGGLVQPGRSLRLSCAASGFTFDDYAMHWVRQAPGKGLEWVSGISWNSGSIGYADSVKGRFTISRDNAKNSLYLQMNSLRAEDTAVYYCAKPRDISSWLGMDVWGQGTTVTVSSDIQMTQSPSSVSASVGDRVTITCRASQDISSWLAWYQQKPGKAPKLLIYAASSLQSGVPSRFSGSGSGTDFTLTISSLQPEDSATYYCQQTTNFPYTFGQGTKLEIKR
Broadly, the koff is the rate constant with which the complex falls apart. B1 gave a koff in experiment [1] of 0.000242 s⁻¹.

B2: ME4 scFv phage clone (scFv, V domains shown, part only)
VH: QVQLVESGAEVKKPGSSVKVSCKASGGTFNNYAVSWVRQAPGQGLEWMGRIIPILGIANYAQTFQGRVTITADKSTTTAYMELSSLRSEDTAVYYCARSYSGYAEGAFDIWGQGTMVTVSS
VL: QFVLTQPPSVSGAPGQRVTISCTGSSSNIGAGYDVHWYQQLPGTAPKVLIYGNSDRPSGVPDRFSGSKSGTSASLAITGLQGEDKATYYCQSYDSRLSGPVFGTGTKVTVLG
modifications: scFv linker not given; phage display
B2: the OD450-630 in experiment [2] came out at 1.66; in experiment [3] it was 1.44. Besides, the figures for the koff in experiment [1] and in experiment [4] were 0.000186 s⁻¹ and 0.000374 s⁻¹, respectively.

B3: ME4.B10 scFv phage clone (scFv, V domains shown, part only)
VH: B2 VH with Y100A, S101R, E105H
VL: B2 VL
modifications: scFv linker not given
On to B3, for which the koff stood at 0.00016 s⁻¹ in experiment [1] and 0.000467 s⁻¹ in experiment [4].

B4: ME4.A12 scFv phage clone (scFv, V domains shown, part only)
VH: B2 VH with Y100H, S101W, E105H
VL: B2 VL
modifications: scFv linker not given
For B4, the koff in experiment [1] was less than 1e-07 s⁻¹; in experiment [4], 0.00101 s⁻¹.

B5: ME4.A2 scFv phage clone (scFv, V domains shown, part only)
VH: B2 VH with Y100S, S101R, E105H
VL: B2 VL
modifications: scFv linker not given
Take B5: the koff came to 0.000183 s⁻¹ in experiment [1] and 0.000852 s⁻¹ in experiment [4].

B6: ME4.B12 scFv phage clone (scFv, V domains shown, part only)
VH: B2 VH with Y100S, S101F, A104S, E105V
VL: B2 VL
modifications: scFv linker not given
Regarding B6, the koff is 0.000177 s⁻¹ in experiment [1] and 0.000753 s⁻¹ in experiment [4].

B7: ME4.A11 scFv phage clone (scFv, V domains shown, part only)
VH: B2 VH with Y100R, S101G, E105H
VL: B2 VL
modifications: scFv linker not given
With B7, the koff in experiment [1] worked out at 7.86e-05 s⁻¹; in experiment [4], 0.000486 s⁻¹.

B8: 1G1 scFv phage clone (scFv, V domains shown, part only)
VH: QVQLVESGGGLVQPGRSLRLSCAASGFTFDDYAMHWVRQAPGKGLEWVSGISWNSGSIGYADSVKGRFTISRDNAKNSLYLQMNSLRAEDTAVYYCAKPRDISSWLGMDVWGQGTTVTVSS
VL: DIQMTQSPSSVSASVGDRVTITCRASQDISSWLAWYQQKPGKAPKLLIYAASSLQSGVPSRFSGSGSGTDFTLTISSLQPEDSATYYCQQTNNFPYTFGQGTKLEIKR
modifications: scFv linker not given; phage display
On to B8, for which the OD450-630 in experiment [2] was determined as 1.38. Moreover, in experiment [3], the OD450-630 came out at 0.35. In experiment [5], this molecule gave a % Gated in M1 of 99.4%; a Geo Mean in M1 of 184; a Geo Mean, all events of 181; a Mean in M1 of 248. Also, the Mean, all events in experiment [5] is 246. In experiment [1], this molecule came in with a koff of 0.000152 s⁻¹.

B9: 1G1.E12 scFv phage clone (scFv, V domains shown, part only)
VH: B8 VH
VL: B8 VL with N92V, N93T
modifications: scFv linker not given
With B9, the koff in experiment [1] worked out at 0.000268 s⁻¹.
